Columns and labels:
[1] = system: IFN-γ, MCP-1, B cell margination, B cell activation; test: OPTIMIZE-1 peripheral blood pharmacodynamics (cytokines/chemokines, immunophenotyping); assay type: in vivo, human; settings: 450 and 900 μg/kg mitazalimab
Text: The aim with the pharmacodynamic biomarkers is to characterize changes in intratumoural and systemic immune activation associated with mode of action of mitazalimab and correlate pharmacodynamic effects with clinical response. Disease progression and treatment response will also be followed with liquid biopsies, analysing biomarkers such as Carbohydrate antigen 19-9 (CA19-9) and circulating tumour DNA (ctDNA). All biomarker analyses in blood and tumour biopsies may be exploratory in nature. All exploratory analyses were performed at a fit-for-purpose laboratory, as the data from the analyses are for scientific use and decision making only. […]
Different types of blood samples will be taken and the following pharmacodynamic biomarkers may be evaluated: • Cytokines and chemokines: Serum samples are to be analysed for levels of cytokines and chemokines involved in the immune activation of mitazalimab, including but not limited to IFN-γ, TNF-α, IL12p70, IL-6, MCP-1, IP-10, MIP-1α, MIP-1β and IL-8; e.g., using a 30-plex kit with Luminex, MSD or similar. • Immune phenotyping: Whole blood samples will be used for immunophenotyping of whole blood for quantification of immune cell populations and immune cell activation directly or indirectly involved with immune activation of mitazalimab using flow cytometry. […]

CD40 = molecular target: T1, CD40 (Homo sapiens, UniProt P25942); settings: human monocyte-derived DC cultures; cited from earlier work
T1 construct: validated in vitro in human monocyte-derived DC cultures; endogenous in cells; host or cells: human monocyte-derived dendritic cells
T1 sequence (P25942 21-277): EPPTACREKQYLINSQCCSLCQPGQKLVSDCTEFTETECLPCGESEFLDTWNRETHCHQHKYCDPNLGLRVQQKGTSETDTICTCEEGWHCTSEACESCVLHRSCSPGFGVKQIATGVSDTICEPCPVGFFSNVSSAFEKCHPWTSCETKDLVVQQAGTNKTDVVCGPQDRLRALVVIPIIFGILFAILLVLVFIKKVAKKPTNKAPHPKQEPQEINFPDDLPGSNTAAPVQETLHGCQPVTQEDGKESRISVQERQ

[2] = OPTIMIZE-1 safety and tolerability (AEs, DLTs, RP2D; CTCAE v5.0); assay type: in vivo
Experimental: Two dose levels, 450 μg/kg and 900 μg/kg, of mitazalimab were planned to be administered in combination with mFOLFIRINOX in Part 1. During the first treatment cycle (the first 21 days) for each patient, mitazalimab was administered on Day 1 and Day 10 and mFOLFIRINOX infusion started on Day 8. During the following 14-day treatment cycles, mFOLFIRINOX was administered on Day 1 and mitazalimab on Day 3 of each cycle, see FIG. 3. In case the number of DLTs for a dose level fulfilled the stop criteria, see Table 3 Escalation rules based on number of patients with DLTs, at the lowest dose level of mitazalimab, the chemotherapy mFOLFIRINOX could be exchanged to the chemotherapy gemcitabine plus nab-paclitaxel, as illustrated in FIG. 2. If changing the chemotherapy from mFOLFIRINOX to gemcitabine plus nab-paclitaxel, see dosage schedule in Example 5.
The dose escalation in Part 1 follows a BOIN design with at least 3 evaluable patients per dose level. According to the BOIN design, each time a cohort of patients has been completed, a decision is made whether the next cohort should remain on the same dose, escalate to the next higher dose level or de-escalate to the next lower dose level, according to the decision rules presented in Table 3 below. A range of 3-9 patients was included at each dose level. In this study, the de-escalation from 450 μg/kg mitazalimab in combination with mFOLFIRINOX was a change of chemotherapy to gemcitabine plus nab-paclitaxel as previously described.
Mitazalimab in combination with mFOLFIRINOX: The DLT evaluation period is defined as the time from the first dose of mitazalimab (Day 1) until Day 21 in the first treatment cycle (Cycle 1). Mitazalimab in combination with gemcitabine plus nab-paclitaxel: The DLT evaluation period is defined as the time from the first dose of mitazalimab (Day 1) until Day 28 within the first treatment cycle of 35 days (Cycle 1). This period enabled the DRC to evaluate for early safety of mitazalimab together with the chemotherapy combination.
The same DLT criteria applied for mitazalimab in combination with mFOLFIRINOX and gemcitabine plus nab-paclitaxel. A DLT was considered related to study treatment unless there is a clear, well-documented, alternative explanation for the adverse event (AE). AEs that meet the above criteria but occur after the DLT evaluation period were not defined as DLTs, unless the onset of the event was during the DLT evaluation period. The event could be reported as AEs/Serious adverse events (SAEs), as applicable.
Number or patients experiencing AEs and number of events were summarized by SOC and preferred term. In addition, the following AEs were presented: • Incidence of DLT (Part 1); • AEs Grade 3 or higher; • Serious AEs; • AEs leading to discontinuation of study treatment; and • AEs leading to death.
The safety set comprised all patients that received any study treatment (mitazalimab) and was used for all endpoints related to the safety objectives.
The objective of the first (Phase 1b) part of the study was to determine the RP2D of mitazalimab+mFOLFIRINOX. Mitazalimab was escalated from 450 μg/kg to 900 μg/kg following a Bayesian optimal interval design with at least 3 patients enrolled per dose level. In the first 21-day treatment cycle (Dose Limiting Toxicity assessment period), mitazalimab was administered intravenously on days 1 and 10 and mFOLFIRINOX starts on day 8. In the second and subsequent cycles, treatment followed a 14-day cycle schedule where mitazalimab was administered 2 days after mFOLFIRINOX.

B1: Mitazalimab: agonistic, human monoclonal (IgG1) antibody targeting CD40 (antibody, chains of the INN, looked up, V domains shown)
VH: EVQLLESGGGLVQPGGSLRLSCAASGFTFSTYGMHWVRQAPGKGLEWLSYISGGSSYIFYADSVRGRFTISRDNSENALYLQMNSLRAEDTAVYYCARILRGGSGMDLWGQGTLVTVSS
VL: QSVLTQPPSASGTPGQRVTISCTGSSSNIGAGYNVYWYQQLPGTAPKLLIYGNINRPSGVPDRFSGSKSGTSASLAISGLRSEDEADYYCAAWDKSISGLVFGGGTKLTVL
[1]
  cytokines and chemokines (IFN-γ, MCP-1) in peripheral blood: increases in peripheral blood were observed
CD40
  activation markers (CD80, CD86) on DCs and release of IL-12: up-regulation of activation markers on the surface of DCs
[2]; in vivo
  AESIs: None
  DLTs: G3 Headache
  DLTs, %: (9.1) %
  Discontinued treatment: Unacceptable toxicity, percentage of patients: (11.6) %
  Discontinued treatment: Unacceptable toxicity, percentage relative to number discontinued: 15.4%
  Grade 1 or 2 TEAEs, %: 81.8%
  Grade 3 TEAEs, %: 36.4%
  Mitazalimab Related Adverse Events: Grade 1 or 2 TEAEs, %: (72.7) %
  Mitazalimab Related Adverse Events: Grade 3 TEAEs, %: (9.1) %
  Mitazalimab Related Adverse Events: patients with any TEAEs, %: (72.7) %
  Mitazalimab-related Grade 1-2 Fatigue: 3
  Mitazalimab-related Grade 1-2 Fever or similar: 6
  Mitazalimab-related Grade 3 Fatigue: 2
  Mitazalimab-related Grade 3 Headache: 1
  Mitazalimab-related Grade 3 Hypokalemia: 1
  Patients with any TEAEs, %: 81.8%
[2]; of 11 patients at 2 dose levels
  Mitazalimab-related Grade 1-2 Flu/muscle ache: 5

Reference: patent US20260055200A1, “COMBINATION THERAPIES” (Alligator Bioscience AB, priority 2022, published 2026)
